Results reported in US20080020978A1 (Amgen, published 2008).

Legend:
[1] = biological target: T1, CGRP1 receptor (CRLR/RAMP1 complex) of human neuroblastoma SK-N-MC cells (human, UniProt Q16602 23-461; O60894 27-148); assay: 125I-hαCGRP competition, SK-N-MC membranes
T1 construct: whole, on cells

[2] = biological target: T2, rat ortholog of the CGRP1 receptor (rat, UniProt Q63118 24-464; Q9JJ74 27-148, limits assumed); assay: cell-based or functional assay
[3] = biological target: T2, rat ortholog of the CGRP1 receptor; assay: cell-based or functional assay; remark: listed apart in the source
[4] = biological target: T1, CGRP1 receptor (CRLR/RAMP1 complex) of …; assay: cell-based or functional assay

T2 sequence (Q63118 24-464 limits assumed, chain 1 of 2): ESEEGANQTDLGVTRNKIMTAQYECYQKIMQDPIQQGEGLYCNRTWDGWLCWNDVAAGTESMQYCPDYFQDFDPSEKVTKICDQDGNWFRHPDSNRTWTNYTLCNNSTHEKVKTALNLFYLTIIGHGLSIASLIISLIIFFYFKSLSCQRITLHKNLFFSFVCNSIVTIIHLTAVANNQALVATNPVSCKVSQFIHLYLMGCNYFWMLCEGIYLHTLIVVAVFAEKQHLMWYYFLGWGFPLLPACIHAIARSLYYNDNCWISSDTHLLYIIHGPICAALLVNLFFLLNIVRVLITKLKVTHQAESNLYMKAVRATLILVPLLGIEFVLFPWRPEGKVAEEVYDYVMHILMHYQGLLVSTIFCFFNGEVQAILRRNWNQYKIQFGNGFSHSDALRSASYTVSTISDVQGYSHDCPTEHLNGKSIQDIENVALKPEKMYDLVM
T2 sequence (Q9JJ74 27-148 limits assumed, chain 2 of 2): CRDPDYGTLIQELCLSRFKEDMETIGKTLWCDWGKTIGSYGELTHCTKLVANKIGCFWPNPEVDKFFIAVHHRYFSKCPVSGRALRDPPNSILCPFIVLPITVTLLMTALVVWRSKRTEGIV
T1 sequence (Q16602 23-461, chain 1 of 2): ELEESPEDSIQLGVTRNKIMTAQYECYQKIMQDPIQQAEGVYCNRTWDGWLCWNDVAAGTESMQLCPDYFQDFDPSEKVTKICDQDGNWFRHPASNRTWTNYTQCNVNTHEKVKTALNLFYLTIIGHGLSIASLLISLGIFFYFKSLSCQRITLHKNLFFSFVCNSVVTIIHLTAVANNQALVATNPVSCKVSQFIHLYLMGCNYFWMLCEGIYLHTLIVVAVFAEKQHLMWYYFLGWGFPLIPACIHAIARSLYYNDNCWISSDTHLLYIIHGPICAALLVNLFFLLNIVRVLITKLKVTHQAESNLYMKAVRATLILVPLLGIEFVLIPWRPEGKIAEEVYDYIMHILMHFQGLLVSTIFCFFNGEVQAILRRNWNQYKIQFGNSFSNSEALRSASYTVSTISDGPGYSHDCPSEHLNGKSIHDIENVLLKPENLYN
T1 sequence (O60894 27-148, chain 2 of 2): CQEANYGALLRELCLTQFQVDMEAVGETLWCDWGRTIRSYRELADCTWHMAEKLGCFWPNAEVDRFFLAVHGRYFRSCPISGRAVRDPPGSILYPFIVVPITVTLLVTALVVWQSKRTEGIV

Binder	Ki [1] [nM]	in vitro IC50 (rat ortholog; nM) [2] [nM]	fold loss of potency against SEQ ID NO:31 [3] [fold]	IC50 [4] [nM]
WVTHXLAGLLSXSGGVVRKNFVPTDVGPFAF (Ac-WVTH[Cit]LAGLLS[Cit]SGG VVRK^(20 kDa MeO-PEG)NFVPTDVGPFAF-amide) [SEQ ID NO 791]	1.83	131	~9	3.74
Ac-WVTHRLAGLLSRSGGVVRK(20 kDa MeO‑PEG)NFVPTDVGPFAF-NH2 [SEQ ID NO 809]	–	6.4	–	0.32
WVTHXLAGLLSXSGGVVXKNFVPTDVGPFAF (Ac-WVTH[Cit]LAGLLS[Cit]SGGVV[hArg]KNFVPTDVGPFAF-NH2) [SEQ ID NO 739]	0.53	8.9	–	–
WVTHXLAGLLSXSGGVVXKNFVPTDVGPXAF (Ac-WVTH[Cit]LAGLLS[Cit]SGGVV[hArg]K(20 KPEGald)NFVPTDVGP[1-Nal]AF-NH2) [SEQ ID NO 173]	0.84	49.5	–	–
